A short description of this data set: soluble on expression in E. coli; label from the status in PepcDB or PDB records.
“MSLAVEIACLDLEGVLVPEIWIAFAEKTGIESLRATTRDIPDYDVLMKQRLRILDEHGLKLADIQAVISTLKPLEGAVEFVDWLRERFQVVILSDTFYEFSQPLMRQLGFPTLLCHRLITDETDRVVSYQLRQKDPKRQSVLAFKSLYYRIIAAGDSYNDTTMLGEADAGILFHAPDNVIREFPQFPAVHTFDELKKEFIKASNRELVLEGHHHHHH”: the “soluble on expression in E. coli” value was “soluble”.
The value for “MGSDKIHHHHHHMSSFSLDFSLGTFQPLAAKMRPQTLKQYCGQEHLIGAGKPLYKAIENGHIHSMIFWGPPGTGKTTLAEIIAQQIHAQVERISAVTAGVKEIRESIERAKQNRLMGQQTILFVDEVHRFNKTQQDAFLPHIENGTIIFIGATTENPSFELNNALLSRVKVYILKPLTTSNIVTVLQNAIQDAEQGLGKERLIFAENVLETLAEYVNGDARLALNCLELMVDMADETEKGKLINHHLLTEVLGERQARFDKQGDRFYDLISALHKSIRGSAPDAALYWYARIITAGGDPLYVARRLLAIASEDVGNADPRAMQVALAAWDCFTRVGAAEGERAIAQAIVYLAVAPKSNAVYVAFKQAKKLAKEMPDYDVPVHLRNAPTHLMKELGYGAEYRYAHDEPNAYAAGEIYFPEELKNTKFYFPTDRGLEIQLKEKLARLHNLDEQSTKKRYK” was “not soluble”.
Regarding “MPEEYIMSSKACIYVLGGAANTAALFDFDGVYILDGGFAEKNPGFVAHVRDVSAVLLAAPTLGNLGTTSALLEQGKPLPVFTNTKPFKTAKPGSSGEIAKAIQEANSKILSVAPPLFNPKYPANIIYQSAAKGVLSLYILAGDVKDAEVITKALAGGNEAEVEKAAAEHGTIGVLLWRPAMTDQSVVRVLISGTSSLSRIQQSLDKAAKSLPFLNVPTVKSKDALSDIPAPAVPRPVAGKPSARPATTTGTATRPTRPAVPAASAPRALTSRAPAGPSRPTTTRNAAPAPRTAVPSRATVLTKTAPASKAPTRAPVPARSAPAPPRGAPAKPAANTAKAEPIAQKKTVGKVQGTAPSKPAPAAPASAATSPAPAPEAPRRDPNNVTIVLDDSLSPEDFNQGSAPMDIVVIPPTPEPPRHEVAQATHPEESIIDAEDLAKAPLEVDDVANLADVEDEIPPPVDAFKKPEPHPEPNVSGGSEEDKIPEPVDAFKKPDPVELDDFDPLKPSHPEPSAPVVPSDHIIIATPDPELPDIVAAVPFVSPSPKGPNDGLVKLDDELEKIAPGFEEPLIPQAPRDDGTLAECSEEVSKLVEISMDTDNSAEVAADLAKAVGEVTQLSADLQNLGLDEKTDEYVRKLSNQMIEDATLPFTSALASSIVTSNGSETNGHGEQAHAAQNGGIDHQKEIPKHDLMQSRSSVIENGAAVQYEKTDPALDDVLNACAQESEKIDASHPDNLHMPAAPGSAAPAKPVKFARPYYFDVVTVPRNEKLETSVAADGLQEFISKVRSRNVILASKDISGEQLQAILCGKQTWCDSAHPCNVIPTHSSPMLLDFRQKNEEQFAANNLQFSIPVEKQRTTVSSDAGAIEYELARVDLL”, the “soluble on expression in E. coli” value is recorded as “soluble”.
As for “AGQCSQNEYFDSLLHACIPCQLRCSSNTPPLTCQRYCNASVTNSVKG”, the entry is “soluble”; as for “MFVFGAYWFDCGERAVLPANSRGALRPQCTRLRFWRGRYWHRGAVSALRRVRPLSASTPSPRVLDGSQSLADTPDNVQQLLQHMSQELDSVVQSMVHLEEYALEQVEKLKGAMEADLRKLALYEEEQAFAQKLTEQLQKKEGAVFEAMRHFLFHVVGLQEQTVAITNELQVLHEFVSENHERVELVLESLRERGLFGSRQDVFEGEVKKKLDRFDPEI”, “not soluble”.
As for “SLTNITQCKNRRCGGELGDFTGYIESPNYPGNYPANTECTWTINPPPKRRILIVVPEIFLPIEDDCGDYLVMRKTSSSNSVTTYETCQTYERPIAFTSRSKKLWIQFKSNEGNSARGFQVPYVTYDEDYQELIEDIVRDGRLYASENHQEILKDKKLIKALFDVLAHPQNYFKYTAQESREMFPRSFIRLLRSKVSRFLRPYK”, the entry is “soluble”.
As for “ERGKFAAVFNDITERRLMEDELRRQEQSHRLVLDNIPDIIARFDRELRHLYVSAAITRVTGFPPEHFIGRTNREIGMPDELVDRWDAAINEVFSSGREQRLEFTYQSPRGLRHFETTLIPERGADDSSAAVLVVNHD”, the entry is “not soluble”.
With “MMITSVEKDTKNRGMLSVFIDEKYAFSIPEEDYFRLCLYDKKELSSDEIEEIKKGVSQRTAKYKAVKYLSYRYMTEAELSQKLRKDGYDEDVILNVVTELKSMGYINDLIYAQKYVYDRIKLKPKAKKMLKRELNQKGVSDEIADQVLSELDFDEDVVIERLIRKKFGKYDMKDPKIQKRIYSFLLHRGFDFENIKRVLRTITHLD”, the “soluble on expression in E. coli” value is on record as “soluble”.
For the sequence “MSLKKEVVVIGGGIVGLSCAYSMHKLGHKVCVIEKNDGANGTSFGNAGLISAFKKAPLSCPGVVLDTLKLMLKNQAPLKFHFGLNLKLYQWILKFVKSANAKSTHRTMALFERYGWLSIDMYHQMLKDGMDFWYKEDGLLMIYTLEESFEKKLKTCDNSGAYKILSAKETKEYMPVVNDNICGSVLLTENAHVDPGEVMHSLQEYLQNVGVEFLYNEEVIDFEFKNNLIEGVITHKEKIQAETIILATGANPTLIKKTKNDFLMMGAKGYSITFKMPEELKPKTSSLFADIFMAMTPRRDTVRITSKLELNTNNALIDKEQIANMKKNLAAFTQPFEMKDAIEWCGFRPLTPNDIPYLGYDKRYKNLIHATGLGWLGITFGPAIGKIIANLSQDGANEKNADIMLFSAFFRDEGHHHHHH”, the “soluble on expression in E. coli” value is given as “not soluble”.
Consider “MEFRVYAGREELAGLVKPMRGGDVEIRIQPVERKVLEFVPLKAETAIEERKSIIVGLDPGITVGIAAIDLDGNIISVYSEKNMALSEIVRFISELGHPIIVATDVNPAPGLVEKIARSFKAQLFVPRESLKVEEKNELLKNLGISVSDDHQRDALEHHHHHH”, for which the “soluble on expression in E. coli” value was “not soluble”.
As to “METMKSKANCAQNPNCNIMIFHPTKEEFNDFDKYIAYMESQGAHRAGLAKIIPPKEWKARETYDNISEILIATPLQQVASGRAGVFTQYHKKKKAMTVGEYRHLANSKKYQTPPHQNFEDLERKYWKNRIYNSPIYGADISGSLFDENTKQWNLGHLGTIQDLLEKECGVVIEGVNTPYLYFGMWKTTFAWHTEDMDLYSINYLHLGEPKTWYVVPPEHGQRLERLARELFPGSSRGCGAFLRHKVALISPTVLKENGIPFNRITQEAGEFMVTFPYGYHAGFNHGFNCAEAINFATPRWIDYGKMASQCSCGEARVTFSMDAFVRILQPERYDLWKRGQDRAVVDHMEPRVPA”, the “soluble on expression in E. coli” value was “soluble”.
Turning to “EIAPLFTIENTVEEVEGMRPYTPLELAGRDIYVREGCYACHSQMIRTLRSDVERYGHYSLAAESMYDHPFQWGSKRTGPDLARIGGKYSDDWHVAHLEDPRALVPGSVMPGYAFLSATRLDTGHLPAALEALRRAGVPYTDAQIATAEQAAGWQADAEQAYESELQELFGDNVQLRDFDGRPGELTEMDALVAYLQVLGT”, the “soluble on expression in E. coli” value is recorded as “not soluble”.
The value for “MSTNALQPKTIGGNNNILEVIRLKRADLRKSDRKVAELVLADPKRVINATIAEAAEWAEVSQPTVIRFCASIGCQGYQDFKLRLAQSLALGMSATHSVIDADDTPAKVSEKIFDYTITSLDWVRNHLDPVQVDRAVDALAKANRIEFFGFGASGIVARDAQQKFPLFGVPCGAETDAHQQIMVVSMLKPGDVAVVISNTGATLAIIETARRARESGCQVIGIVGSDGPLVEFCDIVLMVETLENTNIYTPTISRIAALTVVDILSTSVALRRGAEHVDLFTGMKRNLRYLRTSTET” was “not soluble”; that for “EIAVIGAAGKTGAAVVAALEGLDDVRRVVHTARRAGDFAVDLETGAGLDKALSGCRGVYFIAPNVHPDEPALLRNTMRAAASVGVDHFVYHSVAWPYTPLMPHHVDKARCEDELRTFGGLRWTVLQPCAYAENFGAVLAGTATTVELPYSPDAAFSFVALADVAEVGARVLVEGPDIHHGATYELGGPEALSVRDLCDRAGGPVSVKQVSVDEWMSRHGRDLTDDGRARLSAMFEFYDRYGFL” was “not soluble”; that for “MGHHHHHHSHMKIFKFTPENNLFYGYILEDMKTGFNILREIMVEGYRPSIARLYDAEDGTQHFTHFADGKCVLIFMAEGNPRIAKVTGEGIAEIVARYPQCQRVDSKLIETWFNNLNWGPDKVAAERVQILKTGNMGFTTEVSGCWSCIHEIYESVINRIRTEFPHADDITMLGGHSSHSYQNGTNMYFVYDYNVVDCKPEEEIDKYHNPLNKIICEETIRLGGSMVHHHGIGKHRVHWSKLEHGSAWALLEGLKKQFDPNGIMNTGTIYPIEK” was “not soluble”.
Turning to “MGSDKIHHHHHHMTGKTVDLKLPAKLDGLFKPCRYKVMYGGRGGGKSHGAASALLALGAQRPLRILCAREIQKSMRDSVHRLLKDKVAQLGLGHFYEITDFEIRGANGTLFVFSGLQSHTVDSIKSFEGIDIVWVEEGHGVSKKSWDVLTPTIRKEGSEIWITLNPDMETDETYRRFIAMPSEDTWLCEINWRDNPWFPEALNRERLKAQRSMNKEDYGNIWEGRPRMVSEGAVYRHEIQDAFHSGRVTLVPYDSSLPVHTVWDLGWNDAMTIGLVQRDLTSVRIIGYIEDTHRTLDWYVAELEKLPYRWGTDFLPHDGRTRNFQTGKSTMEILTGLGRKSVFVQNATGIEEGIRAARMLFPKVYFDKDKTARLLECLKRYGRQIHAKTGVAMGPLHDEYSHGADMFRYLAQAVDLMDTGSNTGYTETPVSDWRLY”, the “soluble on expression in E. coli” value was “not soluble”.
As for “MTRACNLYVFKNKYVSFNLLDSPNSNPKLLKISLPFNFMDEFEGLLKAVGSAPWYKLIGMVPKLQGDRVVVEMEIDRSKHLQALGTTHGGAIASVLDSAIGLNVNREVVKMGKTAVTAQLNIHYIRPVTEGKIVGVGMPMHIGSKVTVGYGEVRNEEGELVAAGTATFYIIDRRFRDLEHHHHHH”, the entry is “not soluble”; as for “ADINHGENVFTANCSACHAGGNNVIMPEKTLQKDALSTNQMNSVGAITYQVTNGKNAMPAFGGRLSDDDIEDVASFVLSQSEKSWN”, “soluble”; as for “SLGVYKARRFSQSTKKLGIHDKVLMAAAEEVMQGIWEADLGSGVIKKRLPLQQGKSGGARTIIFFKSANHVFFYDGWSKSGLSSKGSKEIEDDELAAYKKMANAFLAFSNKQIEDLIETGFLIEVKNER”, “not soluble”.
As to “MGSDKIHHHHHHMARRKEHSHDEIRVMAIEAAIALLQQQGVQGLSLRKIASEIGYVPSTLINIFGSYNYLLLAVSEATLQLLMSHLSAVSENDSLRHIIVMAQKYSEFAHSQRQCFKLVFELQLLESEHLPASQGQLIANLFRLIENELALLFPNETIEQQLQMSRVLWGGIHGLTALSLDNKLFADTVSLPALLESHVTGYLQGMGYQREEACC”, the “soluble on expression in E. coli” value was “not soluble”.
The value for “MGSDKIHHHHHHMGKPHRIALALQGGGVHGAFTWGVLDALLEEAATGKIEFVGVSGASSGALTATAMAYGYHEGAAQPGPASARSRRMAEAARTKIRELWETVARAAFWGGNPFVAAIGLAQDWNIDDTPAARWADVAGGNTPAAESGLGTYLTAVLRDVLPQIPAIFALPQEGTPTLIVAATDIGECRRQLFIDGAVSPDAVRASTNLPTSLHTVSIGDHHYWDGGYMGNPPLTPLVERLRETNAEDLVLVTLNPLHRDGPPPKGGRQVLDRLNEVAFNASLVHEVNAIETINRLVDADMIKEPPPGQHPYRRVNLHRIHADEEMVKLGVYSKDAPAWDFLVYLRDLGRKAFTESWETIRPALGKHSSWDTNSVCDQILARKAITTREK” was “not soluble”; that for “MGHHHHHHSHMTLVLSMNRFCEPIVSEGAAEIAGYQTLWEADSYGGPSPPGPAQAPLQGDRGAGPPLAGSHYRGISNPITTSKITYFKRKYVEEEDFHPPLSSCSHKEQSRGQLVEDMTIKRHQLRNKYKTRIQGFLCDAARFLYPSNKCICDRLKNDD” was “not soluble”.

Values taken from the DeepSol protein solubility set.
